Source: patent US20250115680A1 (PROFOUNDBIO US, published 2025)

How the values were obtained:
[1] = target: T1, rat PTK-7 recombinant protein (rat, UniProt A0A8I6ALM9 40-713); assay: ELISA, plate-coated rat PTK7 protein, anti-human Fc-HRP detection
T1 construct: also called rat PTK7 protein
Description: (§1) Binding specificity property was tested by ELISA according to a standard protocol. Specifically, 96-well micro-plates were coated with 2 μg/mL human, cynomolgus, mouse, and rat PTK-7 recombinant protein in PBS 100 μL per well, incubated overnight at 4° C. Plates were washed twice by TBS+0.5% Tween20. 200 μL of blocking buffer (2% BSA in PBS) was added to each well and incubated at 37° C. for 2 hours. Plates were washed using the buffer mentioned above. Serially diluted antibodies were added to the ELISA plate with 100 μL per well and incubated for 1 hour at room temperature. Then plates were washed for 3 times. After washing, HRP conjugated anti-human Fc antibody solution (abcam, ab98624, diluted with blocking buffer) was added to the plate with 100 μl per well. The plates were incubated at room temperature for 1 hour and then washed for 3 times. Then TMB solution was added to plates with 100 μl per well, placed at room temperature for 5-15 mins, then the stop solution (2M H₂SO₄) was added with 50 μl per well. Finally, the result was measured by absorbance at A₄₅₀ and A₆₃₀.

[2] = target: T2, mouse PTK-7 recombinant protein (mouse, UniProt Q8BKG3 23-696, limits assumed); assay: ELISA, plate-coated mouse PTK7 protein, anti-human Fc-HRP detection
T2 construct: also called mouse PTK7 protein
T2 sequence (looked up): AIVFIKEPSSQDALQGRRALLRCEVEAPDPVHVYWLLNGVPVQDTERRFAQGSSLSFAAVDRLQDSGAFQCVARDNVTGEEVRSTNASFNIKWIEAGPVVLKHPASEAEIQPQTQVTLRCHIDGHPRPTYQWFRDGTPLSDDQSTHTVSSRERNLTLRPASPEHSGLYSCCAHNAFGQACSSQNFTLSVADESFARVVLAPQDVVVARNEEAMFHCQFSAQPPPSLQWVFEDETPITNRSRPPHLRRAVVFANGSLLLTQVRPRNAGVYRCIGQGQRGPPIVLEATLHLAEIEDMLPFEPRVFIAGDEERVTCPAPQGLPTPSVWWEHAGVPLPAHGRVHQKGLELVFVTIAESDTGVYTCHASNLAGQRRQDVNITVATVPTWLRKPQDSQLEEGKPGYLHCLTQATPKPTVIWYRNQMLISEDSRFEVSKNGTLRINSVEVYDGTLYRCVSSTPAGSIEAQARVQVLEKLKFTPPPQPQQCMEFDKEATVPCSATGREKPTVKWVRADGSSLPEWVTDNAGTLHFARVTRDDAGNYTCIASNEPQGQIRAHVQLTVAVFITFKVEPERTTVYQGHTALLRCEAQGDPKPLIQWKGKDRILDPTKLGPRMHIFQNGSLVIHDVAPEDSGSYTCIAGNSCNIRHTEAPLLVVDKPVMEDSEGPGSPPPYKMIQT
Description: as §1

[3] = target: T1, rat PTK-7 recombinant protein; assay: ELISA, plate coated with 2 ug/mL rat PTK-7 recombinant protein, HRP anti-human Fc detection, OD450
Description: as §1

[4] = target: T2, mouse PTK-7 recombinant protein; assay: ELISA, plate coated with 2 ug/mL mouse PTK-7 recombinant protein, HRP anti-human Fc detection, OD450
Description: as §1

EC50 [1]: 1.57 nM
EC50 [2]: 5.24 nM
EC50 [3]: 5.24 nM
EC50 [4]: 1.57 nM
B1: humanized antibody 2C5 (antibody, V domains shown)
VH: QVQLVQSGAEVKKPGASVKVSCKASGYTFTDYYINWVRQAPGQGLEWMGDINPYSGGPVYNQKFMARVTMTVDKSINTAYMELSRLRSDDTAVYYCARGDYYGSNYNYWGQGTLVTVSS
VL: EIVLTQSPATLSVSPGERATLSCRASQNIGTSIHWYQQKPGQAPRLLIKFASESISGIPARFSGSGSGTEFTLTISSLQSEDIAVYYCQQSNNWPYTFGQGTKLEIK
notes: Only variable regions are tied to 2C5; It was detected with anti-human Fc, so it has a human Fc
